According to patent EP1160320A1 (INSTITUT NATIONAL DE LA SANTE ET DE LA RECHERCHE MEDICALE …, dated 2001):

Biological target: T1, hTAFII80δ (human, UniProt P49848 1-677)
T1 construct: Endogenous protein immunoprecipitated from HeLa extracts; also called hTAFII80 delta; δ isoform of hTAFII80
Test: co-immunoprecipitation of endogenous hTAFII80δ complexes from HeLa cells, immunoblot

T1 sequence (P49848 other isoform, or with tags, fused parts or gaps mutant limits assumed): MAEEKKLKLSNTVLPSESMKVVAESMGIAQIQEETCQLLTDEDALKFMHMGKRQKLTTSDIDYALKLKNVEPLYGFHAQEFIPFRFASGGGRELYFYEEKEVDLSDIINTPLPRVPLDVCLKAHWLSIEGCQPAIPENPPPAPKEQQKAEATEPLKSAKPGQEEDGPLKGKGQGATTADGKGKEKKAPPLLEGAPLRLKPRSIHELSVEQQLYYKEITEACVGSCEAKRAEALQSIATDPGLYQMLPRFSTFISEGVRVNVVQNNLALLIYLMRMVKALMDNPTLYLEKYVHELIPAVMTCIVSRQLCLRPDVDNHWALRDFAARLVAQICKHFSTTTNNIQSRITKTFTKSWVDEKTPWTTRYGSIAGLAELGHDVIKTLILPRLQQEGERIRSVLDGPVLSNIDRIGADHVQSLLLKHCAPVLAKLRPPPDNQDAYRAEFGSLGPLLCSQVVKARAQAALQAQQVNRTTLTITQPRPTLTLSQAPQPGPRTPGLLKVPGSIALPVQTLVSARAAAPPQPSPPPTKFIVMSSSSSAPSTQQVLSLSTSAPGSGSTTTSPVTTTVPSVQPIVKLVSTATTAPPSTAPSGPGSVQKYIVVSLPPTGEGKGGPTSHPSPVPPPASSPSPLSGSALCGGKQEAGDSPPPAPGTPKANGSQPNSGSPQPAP

B1: hTAFII31 (other, human, UniProt Q16594 1-264, looked up)
chain: MESGKTASPKSMPKDAQMMAQILKDMGITEYEPRVINQMLEFAFRYVTTILDDAKIYSSHAKKATVDADDVRLAIQCRADQSFTSPPPRDFLLDIARQRNQTPLPLIKPYSGPRLPPDRYCLTAPNYRLKSLQKKASTSAGRITVPRLSVGSVTSRPSTPTLGTPTPQTMSVSTKVGTPMSLTGQRFTVQMPTSQSPAVKASIPATSAVQNVLINPSLIGSKNILITTNMMSSQNTANESSNALKRKREDDDDDDDDDDDYDNL
notes: Baculovirus-produced in SF9 extracts for the pull-down; endogenous in HeLa cells for the co-immunoprecipitation; No tag is stated; also called recombinant hTAFII31; histone H3-like hTAFII31
binding result: no binding
